Source: article PMC5469197, “ANGUSTIFOLIA, a Plant Homolog of CtBP/BARS Localizes to Stress Granules and Regulates Their Formation” (Frontiers in Plant Science, 2017)

Assays:
Assay in all cases: co-IP; LUMIER in HEK293TN cells: Prot-A fusion co-transfected with Renilla luciferase fusion (AN always the luciferase fusion with the interactors); luciferase activity before (input) and after pulldown; percentage pulldown = pulldown/input x 100; empty vectors as negative control; positive if more than two times the background
Settings in all cases: partners not purified
[1] = molecular target: T1, GLYCINE-RICH RNA-BINDING PROTEIN 2 (GRP2), Prot-A fusion (Arabidopsis thaliana, UniProt Q9SVM8 35-158)
T1 construct: CDS amplified from Col-0 cDNA; source: HEK293TN cells, transfected; not shown: Protein A (Staphylococcus aureus), N-terminal, kept
T1 sequence (looked up): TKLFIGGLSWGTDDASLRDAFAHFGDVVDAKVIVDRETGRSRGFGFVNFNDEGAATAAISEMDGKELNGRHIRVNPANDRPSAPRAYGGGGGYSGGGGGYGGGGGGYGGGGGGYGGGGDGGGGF

[2] = molecular target: T2, KH DOMAIN-CONTAINING PROTEIN (AT2G38610), Prot-A fusion (Arabidopsis thaliana, UniProt Q9ZVI3 1-286)
T2 construct: KH domain-containing protein, Arabidopsis thaliana, AT2G38610; CDS amplified from Col-0 cDNA; source: HEK293TN cells, transfected; not shown: Protein A (Staphylococcus aureus), N-terminal, kept
T2 sequence (looked up): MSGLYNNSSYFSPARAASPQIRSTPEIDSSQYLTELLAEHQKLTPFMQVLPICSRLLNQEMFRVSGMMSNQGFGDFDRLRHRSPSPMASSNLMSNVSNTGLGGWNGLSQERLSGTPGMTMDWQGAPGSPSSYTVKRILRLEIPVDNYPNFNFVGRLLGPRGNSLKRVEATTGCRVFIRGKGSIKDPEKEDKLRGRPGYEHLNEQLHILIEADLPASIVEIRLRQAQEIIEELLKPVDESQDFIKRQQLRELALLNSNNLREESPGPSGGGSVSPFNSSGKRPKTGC

[3] = molecular target: T3, POLY(A) BINDING PROTEIN 2 (PAB2), Prot-A fusion (Arabidopsis thaliana, UniProt P42731 1-629)
T3 construct: CDS amplified from Col-0 cDNA; also called AtPAB2; source: HEK293TN cells, transfected; not shown: Protein A (Staphylococcus aureus), N-terminal, kept
T3 sequence (looked up): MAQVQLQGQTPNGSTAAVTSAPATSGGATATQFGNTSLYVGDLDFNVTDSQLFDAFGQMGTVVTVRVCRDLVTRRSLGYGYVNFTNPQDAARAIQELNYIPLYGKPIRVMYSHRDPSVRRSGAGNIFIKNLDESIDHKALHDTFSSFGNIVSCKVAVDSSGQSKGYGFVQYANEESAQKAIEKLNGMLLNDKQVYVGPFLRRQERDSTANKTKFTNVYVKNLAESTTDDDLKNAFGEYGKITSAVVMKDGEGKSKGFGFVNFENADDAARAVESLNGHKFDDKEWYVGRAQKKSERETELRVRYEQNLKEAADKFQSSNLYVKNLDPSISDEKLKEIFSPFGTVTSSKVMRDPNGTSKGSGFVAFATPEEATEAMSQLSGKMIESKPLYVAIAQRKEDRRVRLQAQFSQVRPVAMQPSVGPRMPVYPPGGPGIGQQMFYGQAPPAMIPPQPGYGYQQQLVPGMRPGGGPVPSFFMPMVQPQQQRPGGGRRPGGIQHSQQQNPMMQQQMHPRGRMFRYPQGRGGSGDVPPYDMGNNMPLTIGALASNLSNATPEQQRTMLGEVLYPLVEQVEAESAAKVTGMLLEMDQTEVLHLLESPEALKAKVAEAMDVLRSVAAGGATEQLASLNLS

[4] = molecular target: T4, TANDEM ZINC FINGER 3 (TZF3), Prot-A fusion (Arabidopsis thaliana, UniProt Q9M0G2 1-356)
T4 construct: Tandem zinc finger 3, Arabidopsis thaliana, AT4G29190; CDS amplified from Col-0 cDNA; source: HEK293TN cells, transfected; not shown: Protein A (Staphylococcus aureus), N-terminal, kept
T4 sequence (looked up): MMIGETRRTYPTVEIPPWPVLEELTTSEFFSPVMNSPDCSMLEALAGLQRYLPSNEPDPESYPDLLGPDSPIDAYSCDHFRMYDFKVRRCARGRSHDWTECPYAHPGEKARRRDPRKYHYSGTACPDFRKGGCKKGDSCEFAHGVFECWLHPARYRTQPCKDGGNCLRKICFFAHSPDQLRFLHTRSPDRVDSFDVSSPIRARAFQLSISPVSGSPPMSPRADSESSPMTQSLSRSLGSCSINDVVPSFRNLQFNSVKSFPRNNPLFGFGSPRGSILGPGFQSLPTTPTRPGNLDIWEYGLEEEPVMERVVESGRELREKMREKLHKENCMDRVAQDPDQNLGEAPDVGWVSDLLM

- fold change from background [1]: 2.52 fold
- percentage pulldown [1]: 0.24%
- fold change from background [2]: 2.93 fold
- percentage pulldown [2]: 0.28%
- fold change from background [3]: 7.67 fold
- percentage pulldown [3]: 0.71%
- fold change from background [4]: 5.25 fold
- percentage pulldown [4]: 0.5%
B1: AN, Renilla luciferase fusion (LUMIER) (natural protein, Arabidopsis thaliana, UniProt O23702 1-636, looked up)
chain: MSKIRSSATMPHRDQPSPASPHVVTLNCIEDCALEQDSLAGVAGVEYVPLSRIADGKIESATAVLLHSLAYLPRAAQRRLRPHQLILCLGSADRAVDSTLAADLGLRLVHVDTSRAEEIADTVMALILGLLRRTHLLSRHALSASGWLGSLQPLCRGMRRCRGMVLGIVGRSVSARYLASRSLAFKMSVLYFDVPEGDEERIRPSRFPRAARRMDTLNDLLAASDVISLHCALTNDTVQILNAECLQHIKPGAFLVNTGSCQLLDDCAVKQLLIDGTIAGCALDGAEGPQWMEAWVKEMPNVLILPRSADYSEEVWMEIREKAISILHSFFLDGVIPSNTVSDEEVEESEASEEEEQSPSKHEKLAIVESTSRQQGESTLTSTEIVRREASELKESLSPGQQHVSQNTAVKPEGRRSRSGKKAKKRHSQQKYMQKTDGSSGLNEESTSRRDDIAMSDTEEVLSSSSRCASPEDSRSRKTPLEVMQESSPNQLVMSSKKFIGKSSELLKDGYVVALYAKDLSGLHVSRQRTKNGGWFLDTLSNVSKRDPAAQFIIAYRNKDTVGLRSFAAGGKLLQINRRMEFVFASHSFDVWESWSLEGSLDECRLVNCRNSSAVLDVRVEILAMVGDDGITRWID
notes: ANGUSTIFOLIA (AN), Arabidopsis thaliana, AT1G01510; CDS amplified from Col-0 cDNA; in the dimerisation test the second copy must have been the N-terminal protein A fusion (surmised from the LUMIER format); also called wild-type AN; source: HEK293TN cells, transfected; not shown: Renilla reniformis luciferase, N-terminal, kept
